Laboratory results from the supplement of paper PMC10567573.
± gives the standard deviation.

Test: protein stability index of a GFP-peptide fusion (GPS, HEK-293T) (PSI 1-6); higher = more stable
[1] = treatment: DMSO, c terminus: a fixed tail appended
[2] = treatment: MLN4924 1 uM, 8 h, c terminus: a fixed tail appended
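Also: 24-mer peptide tiles fused after GFP, lentivirally expressed, FACS-sorted into six equal bins by GFP/DsRed ratio, decoded by Illumina sequencing, PSI is the read-weighted mean bin number.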

Sequence	protein stability index [1]	protein stability index [2]	protein stability index (treatment: DMSO, c terminus: native)	protein stability index (treatment: MLN4924 1 uM, 8 h, c terminus: native)
DVVKTQRQVALGAMEAVRVNPLHV [SLC25A39]	3.05 ± 0.22	3.23 ± 0.13	–	–
DWVMWAVNEFSLKGVDFQKFCMNG [ETS1]	3.16 ± 0.39	3.05 ± 0.47	–	–
DYRQEQPETFWIQRAPQLPTWWPL [SPAG8]	2.48 ± 0.15	2.57 ± 0.19	–	–
EADPPASDLPTPQAIEPQAIVQQV [SNX8]	5.34 ± 0.11	5.2 ± 0.24	–	–
EAGASLVDQKLELNIVPRTKVVYL [PI4K2A]	2.29 ± 0.26	2.34 ± 0.47	–	–
EAGNEFKNIFGTPEFVAPEIVNYE [DAPK3]	4.02 ± 0.1	4.66 ± 0.1	–	–
EALGFSWHDTCFVCAICQINLEGK [PDLIM7]	2.48 ± 0.82	1.63 ± 0.26	–	–
EALKHPWVCQRSTVASMMHRQETV [CAMK2B]	2.88 ± 0.27	2.97 ± 0.21	–	–
EAVESTLQTPLDIRLKESINCQLS [TRIM14]	4.38 ± 0.44	4.34 ± 0.36	–	–
EDGSVELESQVQKDGVADSTVISS [C18orf25]	5.5 ± 0.2	5.42 ± 0.28	–	–
EDHIAHIIELLGSIPRHFALSGKY [SRPK2]	2.71 ± 0.4	2.63 ± 0.58	–	–
EDHIDDAKYCGHLYGLGSGSSYVQ [CNOT7]	3.38 ± 0.16	3.41 ± 0.26	–	–
EDLELKKKIFAQLDSIIDDRVILS [CRYL1]	3.28 ± 0.26	3.01 ± 0.36	–	–
EDSIFGDPKKLLTQYFVQENYLEY [MAGEA6]	2.88 ± 0.34	2.62 ± 0.11	–	–
EDTPSDNDSGICMSPESYLGSPQH [ATF4]	4.66 ± 0.36	4.83 ± 0.22	–	–
EDTQTDADSSAQAAAQAPENFQEG [TAF7L]	5.47 ± 0.52	5.57 ± 0.42	–	–
EEAVTVLEDLESELDDPGQPVSLR [ZNF24]	5.58 ± 0.24	5.47 ± 0.21	–	–
EECRMSGEFPSPVSISIISSTSGG [KRT71]	3.59 ± 0.25	3.6 ± 0.4	–	–
EEDENGLPRRRGLRKKKTTKLRLE [NEUROD6]	4.9 ± 0.28	4.94 ± 0.35	–	–
EEEEEEEEVDLACTPTDVRDVDI [CCND1]	–	–	4.5 ± 0.5	5.14 ± 0.34
EEEEEGRFYYSEDDHGDECSYTDL [KCNA4]	5.4 ± 0.12	5.33 ± 0.2	–	–
EEETYKCLECGKSFCHGSSLKRHL [ZNF449]	3.77 ± 0.5	3.78 ± 0.79	–	–

Sequence	protein stability index [1]	protein stability index [2]	protein stability index (treatment: DMSO, c terminus: native)	protein stability index (treatment: MLN4924 1 uM, 8 h, c terminus: native)
EEINKNISDFGRQQLLPPFPSLHQ [EHMT1]	3.08 ± 0.27	3.64 ± 0.4	–	–
EEITEESLEESVGKPLYLIFRNLC [INTS3]	2.79 ± 0.58	2.88 ± 0.38	–	–
EEQALTKAAEGGLSSPEFSELCIW [FAM98B]	3.72 ± 0.052	3.65 ± 0.11	–	–
EFSSVGTEMIITKAGRRMFPACRV [TBX6]	2.7 ± 0.21	2.66 ± 0.34	–	–
EGDPGSKQPRKKRGRYRQYNSEIL [LCOR]	4.64 ± 0.22	4.55 ± 0.28	–	–
EGGGTSLHVACELARPECLFLLLG [ANKRD9]	2.03 ± 0.091	2.06 ± 0.67	–	–
EGVSLTAVLTTHHHWDHARGNPEL [HAGHL]	2.72 ± 0.27	2.87 ± 0.42	–	–
EGYILREDGKTCRRKDVCQAIDHG [MATN2]	4.31 ± 0.63	4.44 ± 0.22	–	–
EIIELRRTVNALEIELQAQHNLRD [KRT34]	2.89 ± 0.36	3.03 ± 0.22	–	–
EKDRIKSFTTNEKAILEQNFRDLV [TRIM29]	3.53 ± 0.27	3.82 ± 0.43	–	–
EKETQIIASIGRHRYIAYMANQEA [IQUB]	3.07 ± 0.32	2.88 ± 0.46	–	–
EKGEKGDRAGDASKDILLGPWDMV [SCARA5]	4.41 ± 0.37	4.71 ± 0.36	–	–
EKVKACQGQYETIERLRSLSPKIM [TBC1D10A]	3.02 ± 0.28	3.23 ± 0.16	–	–
ELEIELQSQLSMKAGLENSLAETE [KRT15]	4.77 ± 0.33	4.75 ± 0.25	–	–
ELKMRAIQAEERLDMEKRRCRQSL [LRRC45]	3.92 ± 0.22	4.13 ± 0.11	–	–
ELNAEKFKNSLLQKELKKAQMAKA [WEE1]	4 ± 0.84	3.42 ± 0.4	–	–
ELQLEQSRAANQEQRANDLEQIME [CEP70]	5.1 ± 0.15	5.16 ± 0.092	–	–
ELQLSDLLKQGYNKTLLRLRLRKE [PKD2L1]	2.39 ± 0.26	2.76 ± 0.24	–	–
ELSSVHPPHYFFTYRIRIEMSKDA [FBXO3]	2.15 ± 0.21	2.18 ± 0.42	–	–
ELVLCVLVSIRNNRNLQKFSLFGD [FBXO33]	2.87 ± 0.54	2.86 ± 0.34	–	–
ENDSTPTVSTSEVTSQQEPQIPVD [TAF7L]	5.53 ± 0.2	5.59 ± 0.26	–	–
ENERVRGLETGDWGGAPKEGSIWR [ZSWIM9]	4.29 ± 0.32	4.16 ± 0.28	–	–

Sequence	protein stability index [1]	protein stability index [2]	protein stability index (treatment: DMSO, c terminus: native)	protein stability index (treatment: MLN4924 1 uM, 8 h, c terminus: native)
ENIDSLYNVNLSKGRAALSATVPR [SCNN1D]	3.94 ± 0.39	4.04 ± 0.24	–	–
ENRVSTLRVSPDGTAFCSGSWDHT [GNB5]	3.95 ± 0.14	3.9 ± 0.19	–	–
EPEDMETLEEKFSDVHPVALNFMK [CDKL4]	4.68 ± 0.3	4.89 ± 0.19	–	–
EPERQVQHEESTEGEADHSGYAGE [UFD1]	5.61 ± 0.28	5.7 ± 0.24	–	–
EPGRLYLDLILAILALELICSLIC [TMEM192]	2.35 ± 0.49	2.21 ± 0.34	–	–
EQLAALSQAPVNKPKKKKEKKEKE [BRD3]	5.38 ± 0.2	5.67 ± 0.2	–	–
EQLGSGDGIPQVYYFGPCGKYNAM [CSNK1G3]	2.34 ± 0.14	2.56 ± 0.17	–	–
EQWDRLLVLYPTSLAIFSEELDGL [PLEKHN1]	2.37 ± 0.3	2.44 ± 0.43	–	–
ERIRLLRQKREAAARKKYNLLQDS [C18orf25]	3.25 ± 0.34	3.6 ± 0.36	–	–
ERLFGSAANVVSAKRNRLAPAHVD [ZBED1]	3.65 ± 0.41	3.66 ± 0.34	–	–
ERSDLEEDNEREGTENGAIDAVPV [ZC3H15]	5.5 ± 0.19	5.5 ± 0.33	–	–
ERSDPVEQGKPVIPAAVLAGFTGS [ETS2]	4.59 ± 0.23	4.7 ± 0.31	–	–
ERSRGRSISRGRHARTHPQTALLE [MATN2]	4.31 ± 0.53	4.72 ± 0.3	–	–
ESEEEGPWEPPVLPILTWPVLQSR [HDAC6]	4.5 ± 0.17	4.37 ± 0.15	–	–
ETLEASVGPRETEEKVRDLLWAKF [TOR1AIP2]	3.98 ± 0.22	3.92 ± 0.3	–	–
ETRPAKRITITESNMKSRYTTEFH [WEE1]	3.49 ± 0.27	3.6 ± 0.071	–	–
ETSVFDQFGIKDVFDNAIRAALIS [RHOBTB1]	2.3 ± 0.22	2.18 ± 0.33	–	–
EVCYEDLGCFSDTEPWGGTAIRPL [PNLIPRP1]	3.18 ± 0.19	3.54 ± 0.66	–	–
EVEVVEEAKCCCFFKRKRKKTAQR [CSNK1G1]	4.4 ± 0.41	4.45 ± 0.12	–	–
EVIISWSEKASKKYVSKELAKEIR [EIF5]	2.34 ± 0.15	2.57 ± 0.26	–	–
EWFQNCYARYHQAFADRDQSERQR [TEKT4]	3.41 ± 0.24	3.21 ± 0.21	–	–
